Assay results reported in FireProtDB (doi:10.1038/75151).

B1: Cold shock protein CspB, P41016 (parent)
chain: MQRGKVKWFNNEKGYGFIEVEGGSDVFVHFTAIQGEGFKTLEEGQEVSFEIVQGNRGPQAANVVKL

Variants of: B1
Conditions: Bacillus caldolyticus, pH 7, Thermal, CD, Sodium cacodylate-HCl 0.1 M, reversible: yes, structure 1C9O, whole UniProt chain shown; for ddG of mutation (higher = less stable) / unfolding free energy: 70 °C

Variant | Tm [°C] | change of melting temperature, mutant - wild type (higher = more stable) [°C] | unfolding enthalpy (van 't Hoff) [kcal/mol] | ddG of mutation (higher = less stable) (NaCl 2 M) [kcal/mol] | unfolding free energy (NaCl 2 M) [kcal/mol] | ddG of mutation (higher = less stable) [kcal/mol] | unfolding free energy [kcal/mol]
R3E L66E | 44.6 | -32.3 | 36.8 | – | – | – | –
Y15F | 76.7 | -0.2 | 56.6 | -0.07 | 2.27 | 0.05 | 1.03
R3E | 59.1 | -17.8 | 45.6 | 1 | 1.2 | – | –
G23Q | 74.7 | -2.2 | 59.5 | 0.31 | 1.89 | 0.29 | 0.79
V64T | 75.1 | -1.8 | 58.3 | 0.19 | 2.01 | – | –
Q2L | 80.9 | 4 | 57.8 | -0.29 | 2.49 | -0.55 | 1.63
L66A | – | – | – | 0.07 | 2.13 | – | –
L66E | – | – | – | 1.27 | 0.93 | – | –
E46A | 75.4 | -1.5 | 57.6 | 0.12 | 2.08 | 0.22 | 0.86
Q53E | 76.1 | -0.8 | 58.8 | 0 | 2.2 | 0.1 | 0.98
N11S | 79.2 | 2.3 | 58.8 | -0.22 | 2.41 | -0.33 | 1.41
S24D | 77.8 | 0.9 | 61.7 | -0.19 | 2.39 | -0.22 | 1.29
T31S | 77.8 | 0.9 | 59.8 | -0.19 | 2.39 | -0.17 | 1.24
